Source: publication PMC3496724

Tests used:
[1] = target: HIV-1 Tat protein (wild type, biologically active) (HIV-1 (human T lymphotropic virus type IIIB-BH-10, subtype B)) (UniProt P04610); test: SPR; BIACORE 3000; Tat immobilised by amine coupling on a CM3 chip; Env (5–1,000 nM) flowed in PBS pH 7.4 with 0.2% Tween 20, 300 mM NaCl, 5 mg/mL dextran; blank reference surface subtracted; single-site model
[2] = target: HIV-1 Tat protein (wild type, biologically active) (HIV-1 (human T lymphotropic virus type IIIB-BH-10, subtype B)) (UniProt P04610); test: ITC; VP-ITC; Tat (1.25 to 4.4 µM) in the cell, trimeric Env (12.5 to 47.0 µM in protein subunit) in the syringe; PBS pH 7.4

**Q.** How did the Kd [1] turn out when “monomeric ΔV2 Env (clade B, HIV-1 SF162) (natural protein)” was run?
**A.** 91 nM

**Q.** And the T1/2 (complex dissociation half life) [1]?
**A.** 23 min

**Q.** What about the koff [1] of the same substance?
**A.** 0.00049 s⁻¹

**Q.** What about the kon [1] of the same substance?
**A.** 5900 M⁻¹ s⁻¹

**Q.** For “trimeric ΔV2 Env (clade B, HIV-1 SF162) (natural protein)”, which Kd [1] is on record?
**A.** 22 nM

**Q.** And the T1/2 (complex dissociation half life) [1]?
**A.** 230 min

**Q.** And the koff [1]?
**A.** 5e-05 s⁻¹

**Q.** What about the kon [1] of the same substance?
**A.** 2600 M⁻¹ s⁻¹

**Q.** “trimeric wt Env (clade B, HIV-1 SF162) (natural protein)” was tested. Which Kd [2] did it give?
**A.** 111 nM

**Q.** And the stoichiometry N (Tat per gp120 subunit) [2]?
**A.** 1

**Q.** And the Kd [1]?
**A.** 38 nM

**Q.** What about the T1/2 (complex dissociation half life) [1] of the same substance?
**A.** 23 min

**Q.** What about the koff [1] of the same substance?
**A.** 0.00049 s⁻¹

**Q.** What about the kon [1] of the same substance?
**A.** 14000 M⁻¹ s⁻¹
